According to patent US10752921B2, “Enzymes and methods for styrene synthesis” (Phytogene, Inc., priority 2012, dated 2020):

Assays:
FDC1 [1] = target: T1, FDC1 (Saccharomyces cerevisiae, UniProt Q03034); assay: Kinetic analysis of purified wild type FDC1 (tCA to styrene, HPLC); type: biochemical; conditions: for Km / Vmax: tCA as substrate (100-2000 μM), 0.5 mg purified protein, 5 min at 30° C.
T1 construct: N-terminal 6xHis leader of vector pDEST17 (own knowledge of the vector); made in house; host or cells: E. coli BL21 (DE3)
T1 sequence (Q03034 1-503): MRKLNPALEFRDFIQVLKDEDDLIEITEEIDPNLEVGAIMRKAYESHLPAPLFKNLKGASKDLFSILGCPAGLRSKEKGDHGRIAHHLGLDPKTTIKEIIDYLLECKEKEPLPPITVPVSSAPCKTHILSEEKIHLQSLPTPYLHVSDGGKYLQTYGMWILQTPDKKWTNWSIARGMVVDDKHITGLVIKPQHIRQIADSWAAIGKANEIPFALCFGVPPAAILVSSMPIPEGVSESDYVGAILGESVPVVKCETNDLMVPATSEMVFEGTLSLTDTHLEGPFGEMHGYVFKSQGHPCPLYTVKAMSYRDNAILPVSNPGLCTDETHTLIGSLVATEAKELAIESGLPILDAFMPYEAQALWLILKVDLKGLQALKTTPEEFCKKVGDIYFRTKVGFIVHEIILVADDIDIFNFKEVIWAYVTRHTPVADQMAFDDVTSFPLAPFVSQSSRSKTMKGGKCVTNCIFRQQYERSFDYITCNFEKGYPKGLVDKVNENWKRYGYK
Method: The standard reaction mixture for decarboxylation consisted of 25 mM potassium phosphate buffer (pH 6.5) containing 5 mM dithiothreitol, 1.4 mM trans-cinnamic acid and enzyme (0.50 mg) to a final volume of 1.0 mL. The reaction was started by the addition of the enzyme and was incubated at 30° C. for 5 min. The reaction was stopped by adding 24 μl of glacial acetic acid (17.4N) after which 2-propanol was added in equal volume to the reaction mixture in order to solubilize the product. The amount of styrene produced was measured by HPLC using a Dionex Ultimate3000 UHPLC equipped with an auto sampler, diode array (UV/Vis) detector, and reverse phase Acclaim 120 C18 column (2.1×150 […] Dionex USA). Samples (10 μl) were injected for analyses at a total constant flow rate of 0.6 ml/minute. The samples were resolved in 0.15% acetic acid (A) with an increasing concentration gradient of acetonitrile containing 0.15% acetic acid (B) for 0 to 4 min, 5%; 4 to 5 minutes, 5 to 40%; 5 to 7 min, 40 to 45%; 7 to 8 min, 45 to 85%; 8 to 12 min, 85 to 95%; 12 to 14 minutes, 95 to 5% at a flow rate of […]. The specific activity was expressed in U (nmol styrene)·mg^−1·min^−1.
To examine the catalytic efficiency of this protein, kinetic studies of FDC1 was conducted using tCA as the substrate. […] The reactions were performed in a total of 1.0 mL standard reaction mixture with 0.5 mg purified protein, and were allowed to proceed for 5 min at 30° C. The styrene was extracted with 250 μL butanol. The experimental negative control used the same conditions except the reaction mixture contained no substrate. Activities were quantified by standard assay method. Duplicate assays were performed and averaged. The Vmax and Km were determined by nonlinear regression analysis of the velocity-concentration data fit to the Michaelis-Menten equation.

FDC1 [2] = target: T1, FDC1; assay: pH stability of FDC1; type: biochemical; conditions: incubated for 30 minutes at pH 6.0 prior to the reaction
Method: The protein (crude extract, 586 μL) was added to 112 μL of 500 mM buffers at pH values of 5, 6, 7, 8, 9, 10, and 11, and incubated at 30° C. for 30 minutes. After treated in various pH buffers, an aliquot of protein (42 mg) was added to a final concentration of 100 mM potassium phosphate buffer pH 6.5, 5 mM DTT, 1.4 mM cinnamic acid and brought up to a final volume of 2 mL. The reaction mixture was then incubated for 8 minutes at 30° C. The styrene was extracted by the addition of 250 μL butanol. The experimental negative control used the same conditions except the reaction mixture contained no substrate. […] This protein is stable and active in a wide range of pH and can be used for industrial production of styrene.

FDC1 [3] = target: T1, FDC1; assay: Temperature stability of FDC1; type: biochemical
Method: After incubation at various temperatures, an aliquot of protein (42 mg) was added to 25 mM potassium phosphate buffer pH 6.5, 5 mM DTT, and 1.4 mM tCA to a final volume of 1 mL. The reaction mixtures were incubated for 8 minutes at 30° C. The styrene was extracted with 250 μl butanol and quantified by HPLC using C18 column. The experimental negative control used the same conditions except the reaction mixture contained no substrate. The enzyme was stable at 50° C. (FIG. 7).
After the protein was incubated for various times, an aliquot (42 mg) was added to 25 mM potassium phosphate buffer pH 6.5, 5 mM DTT, and 1.4 mM tCA to a final volume of 1 mL. The reaction mixtures were then incubated for 8 minutes at 30° C. Styrene was extracted by adding 250 μL butanol to the reaction mixtures and quantified by HPLC. The experimental negative control used the same conditions except the reaction mixture contained no substrate. The protein was stable at 50° C. for 2 hr (FIG. 8).

styrene production [4] = assay: Styrene production by wild type FDC1 in anaerobic versus aerobic condition; type: cell-based
Method: Production of styrene by maintaining the culture in an aerobic environment was conducted. […] Using the STRATA-X® column, we can trap the volatile styrene and can maintain aerobic conditions.

styrene production [5] = assay: Expression of FDC-PAL2 fusion protein in E. coli, styrene in medium; type: cell-based; conditions: expressed in E. coli
Text: Artificial channels were included in the styrene production. To construct the fusion protein of PAL2 and FDC using Gateway technology, four primers were designed for PCR amplification. […] The FDC gene (˜1.5 kb) and the PAL2 gene (2.2 kb) were amplified using the above primers and cloned into the Gateway vector pDEST17. The constructs of the fusion protein of PAL2 and FDC were transformed to BL21(DE3). Fusion proteins of FDC mutant and PAL also can be obtained by the above process.
This fusion protein produced styrene at an amount that was about 6-fold higher than that of FDC expressing in E. coli (95 mg/Lin medium). This amount of styrene was also much higher than that of non-fused proteins of PAL2 and FDC (expressed in yeast, with 69 mg/L styrene detected).

B1: FDC1: Saccharomyces cerevisiae cinnamic acid decarboxylase, also termed ferulic acid decarboxylase; 503 amino acids, SEQ ID NO:8 (protein, listed as Saccharomyces cerevisiae)
chain: MRKLNPALEFRDFIQVLKDEDDLIEITEEIDPNLEVGAIMRKAYESHLPAPLFKNLKGASKDLFSILGCPAGLRSKEKGDHGRIAHHLGLDPKTTIKEIIDYLLECKEKEPLPPITVPVSSAPCKTHILSEEKIHLQSLPTPYLHVSDGGKYLQTYGMWILQTPDKKWTNWSIARGMVVDDKHITGLVIKPQHIRQIADSWAAIGKANEIPFALCFGVPPAAILVSSMPIPEGVSESDYVGAILGESVPVVKCETNDLMVPATSEMVFEGTLSLTDTHLEGPFGEMHGYVFKSQGHPCPLYTVKAMSYRDNAILPVSNPGLCTDETHTLIGSLVATEAKELAIESGLPILDAFMPYEAQALWLILKVDLKGLQALKTTPEEFCKKVGDIYFRTKVGFIVHEIILVADDIDIFNFKEVIWAYVTRHTPVADQMAFDDVTSFPLAPFVSQSSRSKTMKGGKCVTNCIFRQQYERSFDYITCNFEKGYPKGLVDKVNENWKRYGYK
In the case of B1, the catalytic efficiency (FDC1 [1]; tCA as substrate) is reported as 8.4 M^−1 S^−1, the Km (FDC1 [1]; listed as wild type FDC) is reported as about 688 µM and the Vmax (FDC1 [1]; listed as wild type FDC) is reported as “about 6.17 nmol·mg^−1·min^−1”. The Km (FDC1 [1]; listed as wild type FDC1) was 688 µM, the Vmax (FDC1 [1]; listed as wild type FDC1) was 6.17 nmol/mg/min and the “relative activity after incubation at pH 6.0” value (FDC1 [2]) was 100%. For the same molecule, the activity retained (FDC1 [3]; after incubation at 50° C. for about 2 hours) was 100%, the “stability at 50° C. over time” value (FDC1 [3]; crude extract incubated at 50° C. for 2 hr) was “stable” and the temperature stability (FDC1 [3]; incubated 30 minutes at 50° C. prior to reaction) was “stable”. The “relative activity after incubation at 50° C.” value (FDC1 [3]; incubated at 50° C. for 30 minutes prior to the reaction) was 100%, the “amount of styrene in anaerobic condition compared to aerobic condition” value (styrene production [4]) was “half the amount of styrene” and the styrene in medium (styrene production [5]) was 95 mg/L.
